{"source": "patent US20140050662", "tested_on": "PSA activatable agent A10 (compound A10)", "data": [{"substance": "enzymatically active prostate specific antigen", "values": [{"measurement": "fluorescence activation (kinetic fluorescence readings, cleavage of the quenched peptide)", "result": "Test agent (compound A10-0.5 µM final concentration of agent) was activated in the presence of active PSA (0.1 µM final concentration of activated enzyme)"}]}]}
